Reference: patent US20250277031A1 (BEIJING HANMI PHARMACEUTICAL, published 2025)

Columns and labels:
[1] = target: recombinant human SIRPγ (ACROBiosystems) (human, UniProt Q9P1W8 29-360, limits assumed); experiment: ELISA, plate coated with 1 µg/mL recombinant human protein, anti-human IgG-HRP, OD450; antibody concentration not given
Description: (§1) Binding specificity of the chimeric anti-human CD47 mAbs was determined by ELISA. A 96-well high-adsorption ELISA plate was coated with 1 μg/mL of the recombinant human PD1, CD28, CTLA4, ICOS, BTLA, CD47, PD-L2, CD80, CD86, B7-H2, CD47, SIRPα and SIRPγ (all from ACROBiosystems), at 100 μL per well using carbonate buffer solution, pH=9.6 at 4° C. overnight. The plate was washed 5 times with PBST, and then blocked using PBST with 1% BSA, 300 μL/well, and incubated at 25° C. for 1 hour, and then washed 5 times with PBST. The chimeric anti-human CD47 mAb samples serially diluted in PBST with 1% BSA and the control CC-90002 and the isotype control were added, 100 μL/well, incubated at 25° C. for 1 hour, and then washed 5 times with PBST. The horseradish peroxidase-labeled anti-human IgG antibody (Chemicon, catalog number AP309P) diluted 1:10000 in PBST with 1% BSA was then added, 100 μL per well, and incubated at 25° C. for 1 hour. The plate was washed 5 times with PBST. The colorimetric substrate TMB was added, 100 μL/well, and developed at room temperature for 10 minutes. 1M H₂SO₄ was added, 100 μL/well, to stop the development. The absorbance at 450 nm was read on a microplate reader.

[2] = target: T1, recombinant human B7-H2 (ACROBiosystems) (human, UniProt O75144 19-258, limits assumed); experiment: as above
T1 construct: counted here as a B7 family member
T1 sequence (looked up): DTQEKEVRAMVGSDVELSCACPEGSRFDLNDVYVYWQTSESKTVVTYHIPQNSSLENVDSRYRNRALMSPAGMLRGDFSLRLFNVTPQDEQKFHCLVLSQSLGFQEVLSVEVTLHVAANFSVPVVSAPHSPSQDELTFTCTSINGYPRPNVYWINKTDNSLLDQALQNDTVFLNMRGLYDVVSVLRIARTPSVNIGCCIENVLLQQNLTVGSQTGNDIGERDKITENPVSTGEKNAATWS
Description: as §1

recombinant mouse CD47 = target: T2, recombinant mouse CD47 (mouse, UniProt Q61735 19-140, limits assumed); experiment: ELISA, plate coated with 1 µg/mL recombinant mouse CD47, anti-human IgG-HRP, OD450
T2 sequence (looked up): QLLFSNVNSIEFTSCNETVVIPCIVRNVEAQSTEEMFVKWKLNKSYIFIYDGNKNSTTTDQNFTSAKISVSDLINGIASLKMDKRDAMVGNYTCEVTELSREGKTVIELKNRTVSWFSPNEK
Description: (§2) Species specificity of the chimeric anti-human CD47 mAbs was determined by ELISA. A 96-well high-adsorption ELISA plate was coated with 1 μg/mL of the recombinant human CD47, cynomolgus CD47, rat CD47 and mouse CD47, at 100 μL per well using carbonate buffer solution, pH=9.6 at 4° C. overnight. The plate was washed 5 times with PBST, and then blocked using PBST with 1% BSA, 300 μL/well, and incubated at 25° C. for 1 hour, and then washed 5 times with PBST. The chimeric anti-human CD47 antibody samples serially diluted in PBST with 1% BSA were added, 100 μL/well, incubated at 25° C. for 1 hour, and then washed 5 times with PBST. The horseradish peroxidase-labeled anti-human IgG antibody (Chemicon, catalog number AP309P) diluted 1:10000 in PBST with 1% BSA was then added, 100 μL per well, and incubated at 25° C. for 1 hour. The plate was washed 5 times with PBST. The colorimetric substrate TMB was added, 100 μL/well, and developed at room temperature for 10 minutes. 1M H₂SO₄ was added, 100 μL/well, to stop the development. The absorbance at 450 nm was read on a microplate reader.

recombinant rat CD47 = target: T3, recombinant rat CD47 (rat, UniProt P97829 19-140, limits assumed); experiment: ELISA, plate coated with 1 µg/mL recombinant rat CD47, anti-human IgG-HRP, OD450
T3 sequence (looked up): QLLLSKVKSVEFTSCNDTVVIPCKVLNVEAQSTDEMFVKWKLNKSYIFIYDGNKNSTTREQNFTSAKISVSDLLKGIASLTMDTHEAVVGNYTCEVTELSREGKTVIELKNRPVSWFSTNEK
Description: as §2

[3] = target: recombinant cynomolgus CD47 (cynomolgus, UniProt A0A2K5X523 19-139); experiment: ELISA, plate coated with 1 µg/mL recombinant cynomolgus CD47, anti-human IgG-HRP, OD450
Description: as §2

recombinant human CD47 [4] = target: T4, recombinant human CD47 (human, UniProt Q08722 19-139); experiment: ELISA, plate coated with 1 µg/mL recombinant human CD47, anti-human IgG-HRP, OD450
T4 construct: also called antigen CD47
T4 sequence (Q08722 19-139 limits assumed): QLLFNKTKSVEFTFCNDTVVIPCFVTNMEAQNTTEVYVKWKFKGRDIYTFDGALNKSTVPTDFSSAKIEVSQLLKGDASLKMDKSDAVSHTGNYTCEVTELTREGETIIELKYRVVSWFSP
Description: as §2

recombinant human CD47 [5] = target: T4, recombinant human CD47; experiment: ELISA, plate coated with 1 µg/mL recombinant human CD47, OD450
Description: A 96-well high-adsorption ELISA plate was coated with 1 μg/mL of the recombinant human CD47 (Sino Biological Inc.) at 100 μL per well using carbonate buffer solution, pH=9.6 at 4° C. overnight. The plate was washed 5 times with PBST, and then blocked using PBST with 1% BSA, 300 μL/well, and incubated at 25° C. for 1 hour, and then washed 5 times with PBST. The anti-human CD47 antibody samples and the control CC-90002 (a patent sequence from WO2016109415) were added, 100 μL/well, incubated at 25° C. for 1 hour, and then washed 5 times with PBST. The horseradish peroxidase-labeled anti-mouse IgG antibody (Abcam, catalog number Ab7068) diluted 1:10000 in PBST with 1% BSA was then added, 100 μL per well, and incubated at 25° C. for 1 hour. The plate was washed 5 times with PBST. The colorimetric substrate TMB was added, 100 μL/well, and developed at room temperature for 10 minutes. 1M H₂SO₄ was added, 100 μL/well, to stop the development. The absorbance at 450 nm was read on a microplate reader.

Chain of recombinant human SIRPγ (ACROBiosystems) (Q9P1W8 29-360 limits assumed): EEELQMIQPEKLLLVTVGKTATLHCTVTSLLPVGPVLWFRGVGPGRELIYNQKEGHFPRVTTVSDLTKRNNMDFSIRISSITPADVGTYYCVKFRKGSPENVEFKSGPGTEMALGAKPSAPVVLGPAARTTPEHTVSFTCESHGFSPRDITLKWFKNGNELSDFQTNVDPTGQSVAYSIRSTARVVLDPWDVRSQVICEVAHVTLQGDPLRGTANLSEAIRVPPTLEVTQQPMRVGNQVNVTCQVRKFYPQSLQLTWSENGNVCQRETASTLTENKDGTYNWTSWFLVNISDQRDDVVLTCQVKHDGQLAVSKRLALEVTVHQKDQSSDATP

binding result [1]: no binding
binding result [2]: no binding
binding result (recombinant mouse CD47): no binding (tested: about 20 nM)
binding result (recombinant rat CD47): no binding (tested: about 20 nM)
EC50 [3]: 0.089 nM
EC50 (recombinant human CD47 [4]): 0.086 nM
EC50 (recombinant human CD47 [5]): 0.026 nM
B1: chimeric anti-human CD47 monoclonal antibody mAb-18-5 (antibody, human IgG1, kappa)
heavy: not shown
light: DIVMTQSQKFMSTSVGDRVSITCKASQNVRTSIAWYQQKSGQSPKTLIYLASNRHTGVPDRFTGSGSGTDFTLTISNVQSEDLADYFCLQHWNYPFTFGSGTKLEIKRTVAAPSVFIFPPSDEQLKSGTASVVCLLNNFYPREAKVQWKVDNALQSGNSQESVTEQDSKDSTYSLSSTLTLSKADYEKHKVYACEVTHQGLSSPVTKSFNRGEC
